The assay concerns the target T1, endogenous Asc of mouse macrophages (mouse (endogenous in BMDM)), Q9EPB4.
T1 chain: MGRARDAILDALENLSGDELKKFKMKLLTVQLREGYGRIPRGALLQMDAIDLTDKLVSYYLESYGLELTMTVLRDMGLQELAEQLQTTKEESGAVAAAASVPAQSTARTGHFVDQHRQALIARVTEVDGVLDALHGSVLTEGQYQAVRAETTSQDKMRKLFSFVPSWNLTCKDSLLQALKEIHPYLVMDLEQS
The assay can be described thus: cross-linking; insoluble fraction (pellet) of BMDM lysates cross-linked with 2 mM disuccinimidyl suberate for 30 min, immunoblot with anti-Asc; cells infected with WT Shigella or Salmonella, T3SS-deficient or fliA mutants, nucleofected with MxiI, or with siRNA to Naip2 or Naip5. The note with it: remark: other sources report otherwise.

B1: endogenous Asc of mouse macrophages, Q9EPB4 1-193 (natural protein)
chain: T1 chain
As for B1, the stoichiometry N (commonly the number of molecules, sites or subunits per partner or assembly) stood at 2.

(Values after article PMC3916413.)
